Measurements from publication PMC8165985.

Target: T1, YycF (Staphylococcus aureus (ATCC29213?)) (UniProt Q9RDT5)
T1 sequence: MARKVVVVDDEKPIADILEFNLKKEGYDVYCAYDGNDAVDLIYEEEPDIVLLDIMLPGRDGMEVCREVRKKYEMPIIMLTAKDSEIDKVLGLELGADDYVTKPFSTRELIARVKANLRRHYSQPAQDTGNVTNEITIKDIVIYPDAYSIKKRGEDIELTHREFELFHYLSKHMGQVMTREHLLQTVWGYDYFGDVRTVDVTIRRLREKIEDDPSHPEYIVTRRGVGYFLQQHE
Assay: EMSA

Row | Sequence | binding
1 | CTGAAAATTAATCACACTATGTTACAGGAAAATTAAGTTGCAATTACAAATATTTCCGTTTAATTATAACAACAATCTATTGCAAATTAAAATACTATCAATTACCATATGGCTTACAACCTAACTAACGAAAGGTAGGTAAAG (double strand) [icaA promoter region] | binds
2 | GCGCAATTTGGTGAAGTTTGATAGATGATACATTCTATTAAACTTCCTTTTTTTATGTCTTTTTTTACCTAATTGTTAAGAGGTTTTGCACTAATGGCACTTAATATAAGGAAGATAGCCGCATAACGAGCAGTATATATCAAATACATTTCAAAAAAAGCTGATTTCTATCAAATAATGAATAGTAATCAGCTTTTTCACATTGCCTAAGGACTTTATGCCCTAGGTTTATATATCAC (double strand) [sarA promoter region] | binds
